The assay addresses T1, human 4-1BB (Homo sapiens, UniProt Q07011).
T1 construct: host or cells: 4-1BB reporter cells of the Promega bioassay, alone or co-cultured with tumor cells (A549, MDA-MB-231, CT26, PC3, SKOV3)
As to the kind of experiment: 4-1BB activation, inducible reporter cell system with or without tumor cells. The class given is cell-based. The note with it: reporter cells alone or co-cultured with A549 tumor cells; 5 hours. The procedure:
After confirming that they retained the ability to bind to PC3 cells, the EphA2-4-1BB bispecific antibodies were assayed for their ability to activate human 4-1BB using an inducible reporter cell system (Promega cat JA2351). […] reporter cells were either cultured alone with the EphA2-4-1BB bispecific antibodies or co-cultured with A549 tumor cells that had been treated with the EphA2-4-1BB bispecific antibodies. The 4-1BB antibody Urelumab (AB-009811) was included as a non-tumor targeting control. After 5 hours of culture, 4-1BB activation was determined from the reporter cells by measuring bioluminescence output.
The activation assay was repeated using MDA-MB-231, CT26, or PC3 tumor cells. […] FIG. 19A-D.
Constructs that comprise AB-008873 fused with h41BBL (THD)3-2 were generated and assayed for the ability to activate 4-1BB for tumor cell lines A549, MDA-MB231, SKOV3, and PC3, as described above for the EphA2-4-1BB bispecific antibodies. AB-009811 was included as a positive control and 5554-41BBL (THD) 3-10 or 5554-41BBL (THD) 3-2 was used as a negative control. […] FIG. 19E.

T1 sequence (Q07011 24-255): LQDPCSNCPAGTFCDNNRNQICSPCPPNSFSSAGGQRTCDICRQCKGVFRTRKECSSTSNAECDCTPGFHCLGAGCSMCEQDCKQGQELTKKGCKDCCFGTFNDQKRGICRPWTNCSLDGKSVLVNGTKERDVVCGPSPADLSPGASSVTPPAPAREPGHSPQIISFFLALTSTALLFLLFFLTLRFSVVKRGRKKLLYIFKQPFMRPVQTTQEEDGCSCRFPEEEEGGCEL

“Urelumab: 4-1BB antibody included as a non-tumor targeting control”: the “4-1BB activation with and without tumor cells” value is recorded as “activated 4-1BB with us without the presence of tumor cells”.

These data come from patent US20250276077A1, “EPHA2 ANTIBODIES” (Immunome, Inc., priority 2022, published 2025).
